Biological target: NB-protein (BchN-BchB α2β2 heterotetramer), electron acceptor component of Rhodobacter sphaeroides DPOR (Rhodobacter sphaeroides)
Experiment: cryo-EM structure

L-protein (BchL homodimer), electron donor component of Rhodobacter sphaeroides DPOR, sequence (Q9RFD6 whole entry): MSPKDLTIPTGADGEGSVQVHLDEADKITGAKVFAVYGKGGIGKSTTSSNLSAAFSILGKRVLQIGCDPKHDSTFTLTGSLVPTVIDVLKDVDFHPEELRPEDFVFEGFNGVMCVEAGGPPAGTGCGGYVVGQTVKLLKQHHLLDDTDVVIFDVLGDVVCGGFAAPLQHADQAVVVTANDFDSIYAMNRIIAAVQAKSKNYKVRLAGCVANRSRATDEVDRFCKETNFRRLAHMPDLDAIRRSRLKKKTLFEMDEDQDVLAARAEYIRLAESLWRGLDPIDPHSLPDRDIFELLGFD

- stoichiometry N (L-protein dimer per NB-protein tetramer): 1
- stoichiometry N (L-protein dimers per NB-protein tetramer): 2
Substance: L-protein (BchL homodimer), electron donor component of Rhodobacter sphaeroides DPOR (from UniProt Q9RFD6 1-297) (enzyme)

Reference: paper doi:10.1101/2024.04.26.590571
